Where two headings read alike, the source gives them in different places.
B1: SSX-2 TCR (HLA-A2 restricted TCR from a natural T cell clone, TRAV14/DV4*01 and TRBV15*02-CB1; expressed from the vector comprising SEQ ID NO: 27) (TCR)
TCR alpha: MSLSSLLKVVTASLWLGPGIAQKITQTQPGMFVQEKEAVTLDCTYDTSDPSYGLFWYKQPSSGEMIFLIYQGSYDQQNATEGRYSLNFQKARKSANLVISASQLGDSAMYFCAMTSGFGNEKLTFGTGTRLTIIPNIQNPDPAVYQLRDSKSSDKSVCLFTDFDSQTNVSQSKDSDVYITDKTVLDMRSMDFKSNSAVAWSNKSDFACANAFNNSIIPEDTFFPSPESSCDVKLVEKSFETDTNLNFQNLSVIGFRILLLKVAGFNLLMTLRLWSS
TCR beta: MGPGLLHWMALCLLGTGHGDAMVIQNPRYQVTQFGKPVTLSCSQTLNHNVMYWYQQKSSQAPKLLFHYYDKDFNNEADTPDNFQSRRPNTSFCFLDIRSPGLGDAAMYLCATSRGQGGQPQHFGDGTRLSILEDLNKVFPPEVAVFEPSEAEISHTQKATLVCLATGFFPDHVELSWWVNGKEVHSGVSTDPQPLKEQPALNDSRYCLSSRLRVSATFWQNPRNHFRCQVQFYGLSENDEWTQDRAKPVTQIVSAEAWGRADCGFTSVSYQQGVLSATILYEILLGKATLYAVLVSALVLMAMVKRKDF
B2: codon-optimized SSX-2 TCR (expressed from the vector comprising SEQ ID NO: 29) (TCR)
TCR alpha: MSLSSLLKVVTASLWLGPGIAQKITQTQPGMFVQEKEAVTLDCTYDTSDPSYGLFWYKQPSSGEMIFLIYQGSYDQQNATEGRYSLNFQKARKSANLVISASQLGDSAMYFCAMTSGFGNEKLTFGTGTRLTIIPNIQNPDPAVYQLRDSKSSDKSVCLFTDFDSQTNVSQSKDSDVYITDKTVLDMRSMDFKSNSAVAWSNKSDFACANAFNNSIIPEDTFFPSPESSCDVKLVEKSFETDTNLNFQNLSVIGFRILLLKVAGFNLLMTLRLWSS
TCR beta: MGPGLLHWMALCLLGTGHGDAMVIQNPRYQVTQFGKPVTLSCSQTLNHNVMYWYQQKSSQAPKLLFHYYDKDFNNEADTPDNFQSRRPNTSFCFLDIRSPGLGDAAMYLCATSRGQGGQPQHFGDGTRLSILEDLNKVFPPEVAVFEPSEAEISHTQKATLVCLATGFFPDHVELSWWVNGKEVHSGVSTDPQPLKEQPALNDSRYCLSSRLRVSATFWQNPRNHFRCQVQFYGLSENDEWTQDRAKPVTQIVSAEAWGRADCGFTSVSYQQGVLSATILYEILLGKATLYAVLVSALVLMAMVKRKDF
B3: codon-optimized human-mouse chimera SSX-2 TCR (codon-optimized SSX-2 TCR including mouse constant region; expressed from the vector comprising SEQ ID NO: 30) (TCR)
TCR alpha: MSLSSLLKVVTASLWLGPGIAQKITQTQPGMFVQEKEAVTLDCTYDTSDPSYGLFWYKQPSSGEMIFLIYQGSYDQQNATEGRYSLNFQKARKSANLVISASQLGDSAMYFCAMTSGFGNEKLTFGTGTRLTIIPNDIQNPEPAVYQLKDPRSQDSTLCLFTDFDSQINVPKTMESGTFITDKTVLDMKAMDSKSNGAIAWSNQTSFTCQDIFKETNATYPSSDVPCDATLTEKSFETDMNLNFQNLSVMGLRILLLKVAGFNLLMTLRLWSS
TCR beta: MGPGLLHWMALCLLGTGHGDAMVIQNPRYQVTQFGKPVTLSCSQTLNHNVMYWYQQKSSQAPKLLFHYYDKDFNNEADTPDNFQSRRPNTSFCFLDIRSPGLGDAAMYLCATSRGQGGQPQHFGDGTRLSILEDLRNVTPPKVSLFEPSKAEIANKQKATLVCLARGFFPDHVELSWWVNGKEVHSGVSTDPQAYKESNYSYCLSSRLRVSATFWHNPRNHFRCQVQFHGLSEEDKWPEGSPKPVTQNISAEAWGRACGITSSYQQGVLSATILYEILLGKATLYAVLVSTLVVMAMVKRKNS

What was measured:
[1] = target: T1, naturally processed and presented SSX-2 protein on SSX-2+/HLA-A2+ target cells (human); test: cell-based or functional assay
[2] = target: T1, naturally processed and presented SSX-2 …; test: cell-based or functional assay; remark: listed apart in the source

Binder | interferon-γ levels (pg/ml), co-culture with 293-A2-SSX2 cells [1] | interferon-γ levels (pg/ml), co-culture with 624 mel cells [1] | interferon-γ levels (pg/ml), co-culture with 938-A2 mel cells [1] | interferon-γ levels (pg/ml), co-culture with 1300 mel cells [1] | interferon-γ levels (pg/ml), co-culture with COS-A2-SSX2 cells [1] | interferon-γ levels (pg/ml), co-culture with K562-A2- Erythroleukemia cells [1] | interferon-γ levels (pg/ml), co-culture with SKOV3 Ovarian cells [1] | interferon-γ levels (pg/ml), co-culture with Skmel 37 mel cells [1] | interferon-γ levels (pg/ml), co-culture with U251 Glioma cells [1] | interferon-γ levels (pg/ml), co-culture with 293-A2-SSX2 cells [2] | interferon-γ levels (pg/ml), co-culture with 624 mel cells [2] | interferon-γ levels (pg/ml), co-culture with 938-A2 mel cells [2] | interferon-γ levels (pg/ml), co-culture with 1300 mel cells [2] | interferon-γ levels (pg/ml), co-culture with COS-A2-SSX2 cells [2] | interferon-γ levels (pg/ml), co-culture with K562-A2- Erythroleukemia cells [2] | interferon-γ levels (pg/ml), co-culture with SKOV3 Ovarian cells [2] | interferon-γ levels (pg/ml), co-culture with Skmel 37 cells [2] | interferon-γ levels (pg/ml), co-culture with U251 Glioma cells [2]
B1 | 29800 pg/mL | 27300 pg/mL | 37000 pg/mL | 2560 pg/mL | 52600 pg/mL | 12500 pg/mL | 2410 pg/mL | 6640 pg/mL | 16700 pg/mL | 52500 pg/mL | 60200 pg/mL | 46100 pg/mL | 3160 pg/mL | 85900 pg/mL | 12800 pg/mL | 11000 pg/mL | 8940 pg/mL | 22900 pg/mL
B2 | 37500 pg/mL | 37500 pg/mL | 46300 pg/mL | 2600 pg/mL | 64100 pg/mL | 21300 pg/mL | 2530 pg/mL | 8870 pg/mL | 19200 pg/mL | 49100 pg/mL | 47100 pg/mL | 51200 pg/mL | 3050 pg/mL | 138000 pg/mL | 13600 pg/mL | 22500 pg/mL | 11400 pg/mL | 21400 pg/mL
B3 | 37300 pg/mL | 47000 pg/mL | 51100 pg/mL | 2720 pg/mL | 56900 pg/mL | 17400 pg/mL | 2220 pg/mL | 10400 pg/mL | 19000 pg/mL | 47300 pg/mL | 57700 pg/mL | 40000 pg/mL | 3460 pg/mL | 164000 pg/mL | 13600 pg/mL | 9860 pg/mL | 10600 pg/mL | 20000 pg/mL

— patent US20160279196A1 (US Dept. of Health and Human Services, published 2016)
